Source: patent US20080220446A1, “Method for Detecting and/or Removing Protein and/or Peptide Comprising a Cross-Beta Structure From an Aqueous Solution Comprising a Protein” (priority 2005, published 2008)

Experiments:
tPA [1] = molecular target: T1, tPA (Homo sapiens, UniProt P00750); experiment: ELISA, binding of β2GPI to immobilized tPA
Procedure: (§1) Binding of purified human factor XII from plasma (Calbiochem) or of purified recombinant human tPA to β2GPI purified from human plasma, or to recombinant human β2GPI was tested in an ELISA. Ten μg of factor XII or tPA in PBS was coated onto wells of a Costar 2595 ELISA plate (Cambridge, USA) and incubated with concentration series of the two β2GPI preparations. Binding of β2GPI was assessed with monoclonal antibody 2B2^22.

factor XII = molecular target: T2, factor XII (Homo sapiens, UniProt P00748); experiment: ELISA, binding of β2GPI to immobilized factor XII
T2 construct: purified human factor XII from plasma (Calbiochem); purchased Calbiochem; host or cells: human plasma
T2 sequence (P00748 20-615): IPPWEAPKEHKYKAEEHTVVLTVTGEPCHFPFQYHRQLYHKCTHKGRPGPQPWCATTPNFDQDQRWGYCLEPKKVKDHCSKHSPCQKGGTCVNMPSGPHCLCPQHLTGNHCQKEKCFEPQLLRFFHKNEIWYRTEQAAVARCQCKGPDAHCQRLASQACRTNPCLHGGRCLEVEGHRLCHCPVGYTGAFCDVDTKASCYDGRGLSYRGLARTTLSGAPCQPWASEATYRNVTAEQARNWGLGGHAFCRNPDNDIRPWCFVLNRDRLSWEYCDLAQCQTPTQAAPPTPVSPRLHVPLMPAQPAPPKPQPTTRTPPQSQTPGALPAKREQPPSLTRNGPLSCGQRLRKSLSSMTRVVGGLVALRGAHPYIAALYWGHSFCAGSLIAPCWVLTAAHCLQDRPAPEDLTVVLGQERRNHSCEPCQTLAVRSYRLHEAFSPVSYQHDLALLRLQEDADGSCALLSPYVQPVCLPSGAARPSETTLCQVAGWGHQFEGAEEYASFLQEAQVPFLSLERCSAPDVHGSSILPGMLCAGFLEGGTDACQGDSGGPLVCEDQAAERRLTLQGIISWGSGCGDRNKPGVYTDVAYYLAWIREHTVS
Procedure: as §1

tPA [2] = molecular target: T1, tPA; experiment: Plasminogen-activation assay (tPA activation, S-2251); assay type: biochemical; conditions: β2GPI preparations, 100 μg ml^−1
Procedure: Plasmin (Pls) activity was assayed as described^16. Peptides and proteins that were tested for their stimulatory ability were regularly used at 100 μg ml^−1. […] Chromogenic substrate S-2251 (Chromogenix, Instrumentation Laboratory SpA, Milano, Italy) was used to measure Pls activity. Conversion of zymogen factor XII (#233490, Calbiochem, EMD Biosciences, Inc., San Diego, Calif.) to proteolytically active factor XII (factor XIIa) was assayed by measurement of the conversion of chromogenic substrate Chromozym-PK (Roche Diagnostics, Almere, The Netherlands) by kallikrein. Chromozym-PK was used at a concentration of 0.3 mM. […] The conversion of Chromozym-PK was recorded kinetically at 37° C. for at least 60 minutes. […]
Formulated protein therapeutics were obtained from the local hospital pharmacy and were used as supplied by the manufacturers. […] Enhancement in fluorescence of ThT and Congo red was measured with all formulated protein therapeutics. […]
To prepare structurally altered ovalbumin (OVA) with amyloid cross-β structures, purified OVA (Sigma, A-7641, lot 071k7094) was heated to 85° C. […] Native OVA (nOVA) and heat-denatured OVA (dOVA) were tested in the ThT fluorescence assay and in the Plg-activation assay. In the fluorescence assay and in the Plg-activation assay, 25 and 100 μg ml^−1 nOVA and dOVA were tested, respectively. […]

T1 sequence (P00750 36-562): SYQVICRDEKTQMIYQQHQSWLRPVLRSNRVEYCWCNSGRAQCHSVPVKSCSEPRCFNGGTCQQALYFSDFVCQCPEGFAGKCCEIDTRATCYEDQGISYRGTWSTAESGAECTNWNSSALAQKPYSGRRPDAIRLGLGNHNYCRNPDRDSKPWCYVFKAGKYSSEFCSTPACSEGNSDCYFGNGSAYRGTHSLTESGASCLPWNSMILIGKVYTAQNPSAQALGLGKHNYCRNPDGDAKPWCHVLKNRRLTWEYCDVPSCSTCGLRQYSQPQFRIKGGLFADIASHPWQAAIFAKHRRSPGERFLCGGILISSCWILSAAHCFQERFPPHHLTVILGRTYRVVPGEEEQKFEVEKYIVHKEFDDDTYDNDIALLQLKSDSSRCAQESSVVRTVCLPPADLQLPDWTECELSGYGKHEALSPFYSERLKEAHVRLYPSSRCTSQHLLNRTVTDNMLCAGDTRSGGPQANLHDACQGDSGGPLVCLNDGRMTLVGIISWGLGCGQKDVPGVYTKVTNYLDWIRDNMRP

- binding to tPA (tPA [1]): bind
- binding to factor XII (factor XII): bind
B1: recombinant β2GPI: recombinant human β2-glycoprotein I made using insect cells (protein)
chain: GRTCPKPDDLPFSTVVPLKTFYEPGEEITYSCKPGYVSRGGMRKFICPLTGLWPINTLKCTPRVCPFAGILENGAVRYTTFEYPNTISFSCNTGFYLNGADSAKCTEEGKWSPELPVCAPIICPPPSIPTFATLRVYKPSAGNNSLYRDTAVFECLPQHAMFGNDTITCTTHGNWTKLPECREVKCPFPSRPDNGFVNYPAKPTLYYKDKATFGCHDGYSLDGPEEIECTKLGNWSAMPSCKASCKVPVKKATVVYQGERVKIQEKFKNGMLHGDKVSFFCKNKEKKCSYTEDAQCIDGTIEVPKCFKEHSSLAFWKTDASDVKPC
- stimulation of tPA-mediated conversion of Plg to Pls (tPA [2]): stimulate tPA-mediated conversion of Plg to Pls
